According to patent US20220389118A1 (Chugai, published 2022):

T1: human FcγRIIb extracellular domain with C-terminal His tag (human, UniProt P31994 43-217)
T1 construct: extracellular domain; not shown: His tag at the C terminus
T1 sequence (looked up): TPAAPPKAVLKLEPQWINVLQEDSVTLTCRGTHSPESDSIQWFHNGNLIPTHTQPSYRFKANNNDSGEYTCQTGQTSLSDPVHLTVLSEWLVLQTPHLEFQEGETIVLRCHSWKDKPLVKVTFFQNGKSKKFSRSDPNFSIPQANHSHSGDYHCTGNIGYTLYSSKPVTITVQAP


Each binder was assayed against T2, human FcγRIIIa type V (allotype V158) extracellular domain with C-terminal His tag (human, UniProt P08637 17-208) (assay: SPR (Biacore), antibody captured, FcγR analyte).
T2 construct: extracellular domain; also called FcγRIIIaV; FcγRIIIa V type; not shown: His tag at the C terminus
T2 sequence (P08637 17-208 F176V): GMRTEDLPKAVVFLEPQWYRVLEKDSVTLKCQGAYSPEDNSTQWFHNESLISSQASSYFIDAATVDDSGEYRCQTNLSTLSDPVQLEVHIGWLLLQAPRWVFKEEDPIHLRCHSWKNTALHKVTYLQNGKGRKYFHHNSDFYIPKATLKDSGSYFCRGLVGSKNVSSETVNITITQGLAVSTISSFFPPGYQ

Kd | Binder
69000 nM | IL6R-BP206/IL6R-L (antibody, human IgG1, kappa, copies: 2 + 2) heavy: QVQLQESGPGLVKPSETLSLTCAVSGHSISHDHAWSWVRQPPGEGLEWIGFISYSGITNYNPSLQGRVTISRDNSKNTLYLQMNSLRAEDTAVYYCARSLARTTAMDYWGEGTLVTVSSASTKGPSVFPLAPSSKSTSGGTAALGCLVKDYFPEPVTVSWNSGALTSGVHTFPAVLQSSGLYSLSSVVTVPSSSLGTQTYICNVNHKPSNTKVDKKVEPKSCDKTHTCPPCPAPDLLGGDSVFLFPPKPKDTLMISRTPEVTCVVVDVSHEDGEVKFNWYVDGVEVHNAKTKPREEQYNSTYRVVSVLTVLHQDWLNGKEYKCKVSNKALPRPIEKTISKAKGQPREPQVYTLPPSRDELTKNQVSLTCLVKGFYPSDIAVEWESNGQPENNYKTTPPVLDSDGSFFLYSKLTVDKSRWQQGNVFSCSVMHEALHNHYTQESLSLSP light: not shown

The binders below were run against T1, human FcγRIIb extracellular domain with … (assay: SPR (Biacore), antibody captured, FcγR analyte).

Kd | Binder
34 nM | IL6R-BP200/IL6R-L (antibody, human IgG1, kappa, copies: 2 + 2) heavy: QVQLQESGPGLVKPSETLSLTCAVSGHSISHDHAWSWVRQPPGEGLEWIGFISYSGITNYNPSLQGRVTISRDNSKNTLYLQMNSLRAEDTAVYYCARSLARTTAMDYWGEGTLVTVSSASTKGPSVFPLAPSSKSTSGGTAALGCLVKDYFPEPVTVSWNSGALTSGVHTFPAVLQSSGLYSLSSVVTVPSSSLGTQTYICNVNHKPSNTKVDKKVEPKSCDKTHTCPPCPAPDYLGDDSVFLFPPKPKDTLMISRTPEVTCVVVDVSHEDGEVKFNWYVDGVEVHNAKTKPREEQYNSTYRVVSVLTVLHQDWLNGKEYKCKVSNDALPRPIEKTISKAKGQPREPQVYTLPPSRDELTKNQVSLTCLVKGFYPSDIAVEWESNGQPENNYKTTPPVLDSDGSFFLYSKLTVDKSRWQQGNVFSCSVMHEALHNHYTQESLSLSP light: not shown
200 nM | IL6R-BP206/IL6R-L (antibody, human IgG1, kappa, copies: 2 + 2) heavy: QVQLQESGPGLVKPSETLSLTCAVSGHSISHDHAWSWVRQPPGEGLEWIGFISYSGITNYNPSLQGRVTISRDNSKNTLYLQMNSLRAEDTAVYYCARSLARTTAMDYWGEGTLVTVSSASTKGPSVFPLAPSSKSTSGGTAALGCLVKDYFPEPVTVSWNSGALTSGVHTFPAVLQSSGLYSLSSVVTVPSSSLGTQTYICNVNHKPSNTKVDKKVEPKSCDKTHTCPPCPAPDLLGGDSVFLFPPKPKDTLMISRTPEVTCVVVDVSHEDGEVKFNWYVDGVEVHNAKTKPREEQYNSTYRVVSVLTVLHQDWLNGKEYKCKVSNKALPRPIEKTISKAKGQPREPQVYTLPPSRDELTKNQVSLTCLVKGFYPSDIAVEWESNGQPENNYKTTPPVLDSDGSFFLYSKLTVDKSRWQQGNVFSCSVMHEALHNHYTQESLSLSP light: not shown

What follows are binders tested against T3, human FcRn (human, UniProt P55899 24-297; P61769 21-119) (assay: binding to FcRn at pH 6.0; method not stated).
T3 construct: the construct is not described

Kd | Binder
71 nM | Fv4-LS (antibody, human IgG1, kappa, also called F22 (LS); F22; copies: 2 + 2) heavy: not shown light: DIQMTQSPSSLSASVGDSVTITCQASTDISSHLNWYQQKPGKAPELLIYYGSHLLSGVPSRFSGSGSGTDFTFTISSLEAEDAATYYCGQGNRLPYTFGQGTKVEIERTVAAPSVFIFPPSDEQLKSGTASVVCLLNNFYPREAKVQWKVDNALQSGNSQESVTEQDSKDSTYSLSSTLTLSKADYEKHKVYACEVTHQGLSSPVTKSFNRGEC

What follows are binders tested against T3, human FcRn (assay: FcRn binding affinity at pH 6.0; method not stated).

Kd | Binder
210 nM | Fv4-F1166 (antibody, IgG1, copies: 2 + 2) heavy: QVQLQESGPGLVKPSETLSLTCAVSGHSISHDHAWSWVRQPPGEGLEWIGFISYSGITNYNPSLQGRVTISRDNSKNTLYLQMNSLRAEDTAVYYCARSLARTTAMDYWGEGTLVTVSSASTKGPSVFPLAPSSKSTSGGTAALGCLVKDYFPEPVTVSWNSGALTSGVHTFPAVLQSSGLYSLSSVVTVPSSSLGTQTYICNVNHKPSNTKVDKKVEPKSCDKTHTCPPCPAPELLGGPSVFLFPPKPKDTLYITREPEVTCVVVDVSHEDPEVKFNWYVDGVEVHNAKTKPREEQYNSTYRVVSVLTVLHQDWLNGKEYKCKVSNKALPAPIEKTISKAKGQPREPQVYTLPPSRDELTKNQVSLTCLVKGFYPSDIAVEWESNGQPENNYKTTPPVLDSDGSFFLYSKLTVDKSRWQQGNVFSCSVMHEALHNHYTRKELSLSP light: DIQMTQSPSSLSASVGDSVTITCQASTDISSHLNWYQQKPGKAPELLIYYGSHLLSGVPSRFSGSGSGTDFTFTISSLEAEDAATYYCGQGNRLPYTFGQGTKVEIERTVAAPSVFIFPPSDEQLKSGTASVVCLLNNFYPREAKVQWKVDNALQSGNSQESVTEQDSKDSTYSLSSTLTLSKADYEKHKVYACEVTHQGLSSPVTKSFNRGEC
430 nM | Fv4-N434H (antibody, human IgG1, kappa, copies: 2 + 2) heavy: not shown light: DIQMTQSPSSLSASVGDSVTITCQASTDISSHLNWYQQKPGKAPELLIYYGSHLLSGVPSRFSGSGSGTDFTFTISSLEAEDAATYYCGQGNRLPYTFGQGTKVEIERTVAAPSVFIFPPSDEQLKSGTASVVCLLNNFYPREAKVQWKVDNALQSGNSQESVTEQDSKDSTYSLSSTLTLSKADYEKHKVYACEVTHQGLSSPVTKSFNRGEC
250 nM | Fv4-F1167 (antibody, human IgG1, kappa, copies: 2 + 2) heavy: QVQLQESGPGLVKPSETLSLTCAVSGHSISHDHAWSWVRQPPGEGLEWIGFISYSGITNYNPSLQGRVTISRDNSKNTLYLQMNSLRAEDTAVYYCARSLARTTAMDYWGEGTLVTVSSASTKGPSVFPLAPSSKSTSGGTAALGCLVKDYFPEPVTVSWNSGALTSGVHTFPAVLQSSGLYSLSSVVTVPSSSLGTQTYICNVNHKPSNTKVDKKVEPKSCDKTHTCPPCPAPELLGGPSVFLFPPKPKDTLYITREPEVTCVVVDVSHEDPEVKFNWYVDGVEVHNAKTKPREEQYNSTYRVVSVLTVLHQDWLNGKEYKCKVSNKALPAPIEKTISKAKGQPREPQVYTLPPSRDELTKNQVSLTCLVKGFYPSDIAVEWESNGQPENNYKTTPPVLDSDGSFFLYSKLTVDKSRWQQGNVFNCSVMHEALHNHYTQKSLSLSP light: DIQMTQSPSSLSASVGDSVTITCQASTDISSHLNWYQQKPGKAPELLIYYGSHLLSGVPSRFSGSGSGTDFTFTISSLEAEDAATYYCGQGNRLPYTFGQGTKVEIERTVAAPSVFIFPPSDEQLKSGTASVVCLLNNFYPREAKVQWKVDNALQSGNSQESVTEQDSKDSTYSLSSTLTLSKADYEKHKVYACEVTHQGLSSPVTKSFNRGEC
400 nM | Fv4-F1172 (antibody, IgG1, copies: 2 + 2) heavy: QVQLQESGPGLVKPSETLSLTCAVSGHSISHDHAWSWVRQPPGEGLEWIGFISYSGITNYNPSLQGRVTISRDNSKNTLYLQMNSLRAEDTAVYYCARSLARTTAMDYWGEGTLVTVSSASTKGPSVFPLAPSSKSTSGGTAALGCLVKDYFPEPVTVSWNSGALTSGVHTFPAVLQSSGLYSLSSVVTVPSSSLGTQTYICNVNHKPSNTKVDKKVEPKSCDKTHTCPPCPAPELLGGPSVFLFPPKPKDTLMISRTPEVTCVVVDVSHEDPEVKFNWYVDGVEVHNAKTKPREEQYNSTYRVVSVLTVLHQDWLNGKEYKCKVSNKALPAPIEKTISKAKGQPREPQVYTLPPSRDELTKNQVSLTCLVKGFYPSDIAVEWESNGQPENNYKTTPPVLDSDGSFFLYSKLTVDKSRWQQGNVFSCSVMHEALHHHYTRKELSLSP light: DIQMTQSPSSLSASVGDSVTITCQASTDISSHLNWYQQKPGKAPELLIYYGSHLLSGVPSRFSGSGSGTDFTFTISSLEAEDAATYYCGQGNRLPYTFGQGTKVEIERTVAAPSVFIFPPSDEQLKSGTASVVCLLNNFYPREAKVQWKVDNALQSGNSQESVTEQDSKDSTYSLSSTLTLSKADYEKHKVYACEVTHQGLSSPVTKSFNRGEC
530 nM | Fv4-F1173 (antibody, human IgG1, kappa, copies: 2 + 2) heavy: not shown light: DIQMTQSPSSLSASVGDSVTITCQASTDISSHLNWYQQKPGKAPELLIYYGSHLLSGVPSRFSGSGSGTDFTFTISSLEAEDAATYYCGQGNRLPYTFGQGTKVEIERTVAAPSVFIFPPSDEQLKSGTASVVCLLNNFYPREAKVQWKVDNALQSGNSQESVTEQDSKDSTYSLSSTLTLSKADYEKHKVYACEVTHQGLSSPVTKSFNRGEC
210 nM | Fv4-YTE (antibody, human IgG1, kappa, copies: 2 + 2) heavy: QVQLQESGPGLVKPSETLSLTCAVSGHSISHDHAWSWVRQPPGEGLEWIGFISYSGITNYNPSLQGRVTISRDNSKNTLYLQMNSLRAEDTAVYYCARSLARTTAMDYWGEGTLVTVSSASTKGPSVFPLAPSSKSTSGGTAALGCLVKDYFPEPVTVSWNSGALTSGVHTFPAVLQSSGLYSLSSVVTVPSSSLGTQTYICNVNHKPSNTKVDKKVEPKSCDKTHTCPPCPAPELLGGPSVFLFPPKPKDTLYITREPEVTCVVVDVSHEDPEVKFNWYVDGVEVHNAKTKPREEQYNSTYRVVSVLTVLHQDWLNGKEYKCKVSNKALPAPIEKTISKAKGQPREPQVYTLPPSRDELTKNQVSLTCLVKGFYPSDIAVEWESNGQPENNYKTTPPVLDSDGSFFLYSKLTVDKSRWQQGNVFSCSVMHEALHNHYTQKSLSLSP light: DIQMTQSPSSLSASVGDSVTITCQASTDISSHLNWYQQKPGKAPELLIYYGSHLLSGVPSRFSGSGSGTDFTFTISSLEAEDAATYYCGQGNRLPYTFGQGTKVEIERTVAAPSVFIFPPSDEQLKSGTASVVCLLNNFYPREAKVQWKVDNALQSGNSQESVTEQDSKDSTYSLSSTLTLSKADYEKHKVYACEVTHQGLSSPVTKSFNRGEC
160 nM | Fv4-LS (antibody, human IgG1, kappa, also called F22 (LS); F22; copies: 2 + 2) heavy: not shown light: DIQMTQSPSSLSASVGDSVTITCQASTDISSHLNWYQQKPGKAPELLIYYGSHLLSGVPSRFSGSGSGTDFTFTISSLEAEDAATYYCGQGNRLPYTFGQGTKVEIERTVAAPSVFIFPPSDEQLKSGTASVVCLLNNFYPREAKVQWKVDNALQSGNSQESVTEQDSKDSTYSLSSTLTLSKADYEKHKVYACEVTHQGLSSPVTKSFNRGEC
240 nM | Fv4-F1171 (antibody, human IgG1, kappa, copies: 2 + 2) heavy: QVQLQESGPGLVKPSETLSLTCAVSGHSISHDHAWSWVRQPPGEGLEWIGFISYSGITNYNPSLQGRVTISRDNSKNTLYLQMNSLRAEDTAVYYCARSLARTTAMDYWGEGTLVTVSSASTKGPSVFPLAPSSKSTSGGTAALGCLVKDYFPEPVTVSWNSGALTSGVHTFPAVLQSSGLYSLSSVVTVPSSSLGTQTYICNVNHKPSNTKVDKKVEPKSCDKTHTCPPCPAPELLGGPSVFLFPPKPKDTLMISRTPEVTCVVVDVSHEDPEVKFNWYVDGVEVHNAKTKPREEQYNSTYRVVSVLTVLHQDWLNGKEYKCKVSNKALPAPIEKTISKAKGQPREPQVYTLPPSRDELTKNQVSLTCLVKGFYPSDIAVEWESNGQPENNYKTTPPVLDSDGSFFLYSKLTVDKSRWQQGNVFNCSVLHEALHSHYTQKSLSLSP light: DIQMTQSPSSLSASVGDSVTITCQASTDISSHLNWYQQKPGKAPELLIYYGSHLLSGVPSRFSGSGSGTDFTFTISSLEAEDAATYYCGQGNRLPYTFGQGTKVEIERTVAAPSVFIFPPSDEQLKSGTASVVCLLNNFYPREAKVQWKVDNALQSGNSQESVTEQDSKDSTYSLSSTLTLSKADYEKHKVYACEVTHQGLSSPVTKSFNRGEC
